Assay [1] has as its target T1, biotinylated human FcRn/β2m (human, UniProt P55899 24-297; P61769 21-119, biotinylated (Biotin-NHS amine chemistry or BirA biotin ligase; site not stated)).
T1 construct: The soluble human FcRn/β2m after biotinylation, tethered on streptavidin or neutravidin chips; also called surface-captured biotinylated human FcRn complexed with β2m
Briefly: SPR, biotinylated FcRn/β2m on streptavidin or neutravidin chip, antagonist as analyte (avidity conditions), pH 7.3; column head printed ka (1/s). For orientation: In SPR one partner is held on a chip, and binding of the other changes the refractive index at the surface.

Assay [2] deals with T2, soluble recombinant human FcRn/β2m (human, UniProt P55899 24-297; P61769 21-119).
T2 construct: About 42 kDa; also called HuFcRn/b2m; huFcRn/b2m
Briefly: SPR, ligand on surface, soluble HuFcRn/b2m as analyte; pH not printed with the table (paragraph 351 speaks of pH 6.0).

The target in assay [3] is T1, biotinylated human FcRn/β2m. The assay is described as follows: SPR, biotinylated FcRn/β2m on streptavidin or neutravidin chip, antagonist as analyte (avidity conditions), pH 7.3.
For assay [4] the target is unchanged. Briefly: SPR, surface-bound huFcRn/b2m, pH 7.3.
The target in a further assay is T3, Human IgG1 Fc (huG1Fc) (human, UniProt P0DOX5 218-449 = IgG part).
T3 construct: Wild-type Fc control, directly immobilised on the chip; also called G1Fc homodimer
The assay is described as follows: SPR, ligand directly immobilised, soluble Fcγ receptor as analyte, pH 7.3.

Numbering of substitutions follows the chain as printed. Numbers in names are those of the source.

As usually defined, the koff is the rate constant with which the complex falls apart. One may read the kon as the rate constant with which the complex forms.

T1 sequence (P55899 24-297 limits assumed, chain 1 of 2): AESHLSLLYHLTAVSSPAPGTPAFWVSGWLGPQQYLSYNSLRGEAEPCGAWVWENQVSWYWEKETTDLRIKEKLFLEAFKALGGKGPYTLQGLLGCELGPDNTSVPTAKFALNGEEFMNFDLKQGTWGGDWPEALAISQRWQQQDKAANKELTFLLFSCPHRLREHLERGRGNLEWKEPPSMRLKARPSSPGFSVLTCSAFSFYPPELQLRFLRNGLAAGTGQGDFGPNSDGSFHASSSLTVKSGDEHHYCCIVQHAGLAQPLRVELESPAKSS
T1 sequence (P61769 21-119 limits assumed, chain 2 of 2): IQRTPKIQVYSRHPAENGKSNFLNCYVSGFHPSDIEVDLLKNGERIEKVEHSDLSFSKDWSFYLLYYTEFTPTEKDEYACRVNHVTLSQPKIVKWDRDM
T2 sequence (P55899 24-297 limits assumed, chain 1 of 2): as the sequence (P55899 24-297 limits assumed, chain 1 of 2) above
T2 sequence (P61769 21-119 limits assumed, chain 2 of 2): as the sequence (P61769 21-119 limits assumed, chain 2 of 2) above

B1: huG1FcYPY (other)
chain: EPKSCDKTHTCPPCPAPELLGGPSVFLFPPKPKDTLYISRTPEVTCVVVDVSHEDPEVKFNWYVDGVEVHNAKTKPREEQYNSTYRVVSVLTPLHQDWLNGKEYKCKVSNKALPAPIEKTISKAKGQPREPQVYTLPPSRDELTKNQVSLTCLVKGFYPSDIAVEWESNGQPENNYKTTPPVLDSDGSFFLYSKLTVDKSRWQQGNVFSCSVMHEALHYHYTQKSLSLSPGK
notes: Fc fragment alone; also called G1FcYPY homodimer
The molecule B1 yielded a dissociation rate constant (koff) in assay [1] of 0.000532 s⁻¹. Besides, in assay [2], the Kd worked out at 16.9 nM, the dissociation rate constant (koff) is 0.00525 s⁻¹ and the kon was 311000 M⁻¹ s⁻¹. In assay [3], this molecule gave a Kd of 1.1 nM and a kon of 492000 M⁻¹ s⁻¹.

B2: huG1FcYTEKF (other)
chain: B1 chain with S39T, T41E, P93V, H218K, Y219F
notes: Human IgG1 Fc with M252Y, S254T, T256E, H433K, N434F, modelled on efgartigimod with five more N-terminal residues (EPKSC); Fc dimer is to be expected; also called benchmark molecule
Turning to B2, in assay [1], the koff worked out at 0.00236 s⁻¹. Moreover, in assay [3], the Kd turned out to be 2.4 nM and the kon worked out at 970000 M⁻¹ s⁻¹.

B3: Vyvgart (other)
chain: DKTHTCPPCPAPELLGGPSVFLFPPKPKDTLYITREPEVTCVVVDVSHEDPEVKFNWYVDGVEVHNAKTKPREEQYNSTYRVVSVLTVLHQDWLNGKEYKCKVSNKALPAPIEKTISKAKGQPREPQVYTLPPSRDELTKNQVSLTCLVKGFYPSDIAVEWESNGQPENNYKTTPPVLDSDGSFFLYSKLTVDKSRWQQGNVFSCSVMHEALKFHYTQKSLSLSPGK
notes: also called Efgartigimod; commercially available Vyvgart product
Take B3: the Kd in assay [4] came to 2.3 nM.

B4: human FcγRI (CD64) (receptor, UniProt P12314 16-292, looked up)
chain: QVDTTKAVITLQPPWVSVFQEETVTLHCEVLHLPGSSSTQWFLNGTATQTSTPSYRITSASVNDSGEYRCQRGLSGRSDPIQLEIHRGWLLLQVSSRVFTEGEPLALRCHAWKDKLVYNVLYYRNGKAFKFFHWNSNLTILKTNISHNGTYHCSGMGKHRYTSAGISVTVKELFPAPVLNASVTSPLLEGNLVTLSCETKLLLQRPGLQLYFSFYMGSKTLRGRNTSSEYQILTARREDSGLYWCEAATEDGNVLKRSPELELQVLGLQLPTPVWFH
notes: extracellular domain; also called FcyRI (CD64)
On to B4, for which the Kd with Human IgG1 Fc (huG1Fc) amounted to 0.086 nM.

(Values after patent publication US20260209357A1 (CSL INNOVATION, published 2026).)
